The results in this text go back to patent US20190218253A1 (NATIONAL UNIVERSITY OF SINGAPORE, published 2019).

Assay [1] has as its target T1, retinoblastoma binding protein 4 (RBBp4) (UniProt Q09028 1-425).
T1 construct: Bought protein; Crystal structure numbering runs at least over residues 33-404; also called RbAp48
Put plainly: fluorescence polarization competition: peptide titrated into RBBp4 + C-terminal FITC-labelled WT SALL4 peptide. On the technique in general: Fluorescence polarisation rises when a labelled molecule tumbles more slowly, as on binding a larger partner.

Assay [2] deals with T1, retinoblastoma binding protein 4 (RBBp4). Put plainly: cell-based or functional assay.
The target is the same in assay [3]. Put plainly: isothermal titration calorimetry, peptide titrated into RBBp4, 25 °C; isothermal titration calorimetry. The protocol: (§1) ITC was carried out with an Auto-iTC200 instrument from Microcal Inc. at 25° C. […] of RBBp4 in 50 mM Tris and 100 mM NaCl at pH 7.4 was loaded into the ITC cell. Sal14 peptide at […] was auto-loaded into the syringe. The titration was carried out with 18 injections of 2.4 μl, performed over a period of 30 min with stirring at 1000 rpm. The ITC data was analysed using Origin software from Microcal.

Assay [4] has the same target. Put plainly: SPR (Biacore T200), RBBp4 amine-coupled to CM5 chip, peptide as analyte; surface plasmon resonance. The protocol:
SPR studies were performed using a Biacore T200 biosensor (GE Healthsciences). ˜12,000 resonance units (RU) of RBBp4 were immobilised by amine coupling to the carboxymethylated dextran matrix of a Series S CM5 chip (Biacore, GE Healthcare). […] The association time and flow rate were set at 60 s and 30 μl/min respectively.
(In SPR one partner is held on a chip, and binding of the other changes the refractive index at the surface.)

Assay [5] shares this target. Put plainly: isothermal titration calorimetry, peptide titrated into RBBp4, 1:1 binding model. The protocol: as §1
For orientation: Isothermal titration calorimetry measures the heat released or taken up as one component is titrated into another.

T1 sequence (Q09028 whole entry, the tested form may be a part): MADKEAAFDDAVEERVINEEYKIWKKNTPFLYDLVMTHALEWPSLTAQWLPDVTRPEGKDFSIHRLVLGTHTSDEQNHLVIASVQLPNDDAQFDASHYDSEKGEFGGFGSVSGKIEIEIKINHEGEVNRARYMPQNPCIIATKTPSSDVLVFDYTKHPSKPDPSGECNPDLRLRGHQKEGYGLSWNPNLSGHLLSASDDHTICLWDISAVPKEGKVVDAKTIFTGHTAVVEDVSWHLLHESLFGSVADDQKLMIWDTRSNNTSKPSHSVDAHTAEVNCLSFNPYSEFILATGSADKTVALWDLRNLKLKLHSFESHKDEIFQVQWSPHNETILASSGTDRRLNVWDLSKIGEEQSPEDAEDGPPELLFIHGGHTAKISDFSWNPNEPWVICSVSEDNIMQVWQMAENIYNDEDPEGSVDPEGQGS
T1 sequence (Q09028 whole entry): as the sequence (Q09028 whole entry, the tested form may be a part) above

B1: WT SALL4 peptide (1-12 aa), MSRRKQAKPQHI (peptide)
peptide: MSRRKQAKPQHI
notes: As used in ITC, SPR, crystal structure and the alanine-scan FP assay; also called SALL4 WT; 12-aa SALL4 peptide
What is called IC50 is the point on the concentration scale where inhibition reaches its midpoint. One may read the Kd as the constant that tells how readily two partners part at equilibrium. High values mean lower affinity, low ones higher affinity. Usually koff stands for a measure of how fast the partners let go of each other. What is called kon is the second-order rate constant of association. Read a high kon as faster complex formation. In the case of B1, the IC50 in assay [1] was determined as 1000 nM. The “PTEN expression by Q-PCR in SNU398 cells treated with peptide” value in assay [2] was found to be 3 fold. Besides, the affinity in assay [3], expressed as Kd, was 1040 nM. Besides, in assay [4], the Kd was 1500 nM, the koff was determined as 0.026 s⁻¹ and the kon turned out to be 16800 M⁻¹ s⁻¹. The same molecule showed a Ka in assay [5] of 960000 M⁻¹.
